Experimental data reported in the nanobody polyreactivity screen of Harvey et al. (2022).

experiment: yeast display, Sf9 membrane polyspecificity reagent, FACS + sequencing; frameworks hold sequencing errors
In short: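 A synthetic nanobody library was expressed on Saccharomyces cerevisiae BJ5465 by galactose induction for 36–48 hours. The library was stained for 1 hour at 4 °C with 10% biotinylated, detergent-solubilized Sf9 membrane reagent and enriched with streptavidin microbeads before FACS. Low and high (top ~1%) gates were set on anti-HA fluorescence for expression and streptavidin fluorescence for reagent binding, and each polyreactivity label reflects the gate of origin.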

Row | Sequence | polyreactivity (PSR sort gate)
1 | QVQLVESGGRLVQAGGSLRLSCAASGSTFTVYAMGWYRQAPGKESELVAVITGSGGSTYYADSVKGRFTISRDNAKNTVYLQINSLKPEDTAVYYCAKEPGENWTVSWRDFDYWGQGTQVTVSS | low polyreactivity
2 | QVQLVESGGGLVQAGGSLRLSCAASGSIFGYNAMGWSRQAPGKERELVAGITSGTSTYYADSVKGRFTISRDNAKYTVYLQMNSLKPEDTEVYYCARTSYRFYRKRYYWGQGTQVTVSS | high polyreactivity
3 | QVQLVESGGGLVQAGGSLRLSCAASGIIFRSYAMGWYRQAPGKERELVASITSGGSTNYADSVKGRFTNSRDNAKNTVYLQMNSLKPEDTAVYYCAADYYYTSFGGYDYWGQGTQVTVSS | high polyreactivity
4 | QVQLVESGGGLVPAGGSLRLSCAASGFTFSYYAMGWYRQAPGKERELVAAISWSGGRTYYADSVKGRFTISRDNAKNTVYLEMNRLKPEDTAVYYCAVVYYGSIFVLEYDYWGQGTQVTVSS | high polyreactivity
5 | QVQLVESGGRLGQAGGSLRLRCAASGYNFGTYDMGWYRPAPGKERELVAAISIGGSTNYADSVKGRFTISRDNAKNTVYLQMNSLKPEDTAVYYCAAEVNVGTLLLSVIVEDGDYWGQGTEVTVSS | low polyreactivity
6 | QVQLVESGGGLVQAGGSLRLSCAASGFTLRLYVMGWYRQAPGKERELVAAITSSGGSTYYADSVKGRFTISRDIAKNTVYLQMNSLKPEDTAVYYCAAVNRKSQLYGYWGQGTQVTVSS | high polyreactivity
7 | QVQLVESGGGLVQAGGSLRLSCAASGSIFWSYAMGWYRQAPGKERELVAAINWSGGRTYYADSVKGRFTISRDNAKNTVYLQMNSLKPEDTAVYYCNAPVHTAQGDEYDYWGQGTQVTVSS | high polyreactivity
8 | QVQLVESGGGLVQAGGSLRLSCAASGFIFRVYAMGWYRQAPGKERELVAAITRAGNTYYADSVKGRFTISRDNAMNTVYLQMNSLKPEDTAVYYCNKYHYWASPMNYWGQGTQVTVSS | high polyreactivity
9 | QVHLVESGGGLVQAGGSLRLSCAASGFIFSGYALGWKRQAPGKERELVAAITSSGDGTYYADSVKGRFTISRDNAKNTVYLQMNSLTPEDTAVYYCNAGRARYFWRTDRFDYWGQGTQVTVSS | high polyreactivity
10 | QDQLVESGGGLVQAGGSLRLSCAASGRTFRYNTMGWYRQAPGKERELVASISWGGGSTYYADSVKGRFTISRDTAKNTVYLQMNSLKPEDTAVYYCAARRWGQFRFEYWGQGTQVTVSS | high polyreactivity
11 | QVQLVESGGGLVQAGGSLRLSCAASGSTLLYYVMGWYRQAPGKERELVAAITGTGGRTYYADSVKGRFTISRDNAKNTVYLQMNSLKPEDTAVYYCAADGKFEYDYWGQGTQVTVSS | low polyreactivity
12 | QVQLVESGGGLVQAGGSLRLSCAASGRIFSRYAMGWYRQAPGKERELVAAINKSGGSTYYADSVKGRFTISRDNAKNTVYLQMNSLKPEDTAVYYCNAVYYWYKGDYWGQGSQVTVSS | high polyreactivity
13 | QVQLVESGGGLVQAGGSLRLSCAASGSTLSGNAMGWYRQAPGKERELVAAISWNGGATYYADSVKGRFTISRDNAKNTVYLQMNSQKPEDTAVYYCAAEYIVTYEYWYFGYDYWGQGTQVTVSS | low polyreactivity
14 | QVQLVESGGGLVQAGGSLRLSCAASGFTFRSYTMGWYRQAPGKERELVAAITSRGTSTYYADSVKGRFTISRDNAKNTVYLQMNSLKPEDTAVYYCADPIYNGYASWQVYYWGQGTQVTVSS | high polyreactivity
15 | QVQLVESGGGLVQAGGSLRLSCAASGSTFGWNAMGWYRQAPGKERELVAAISSSGGITYYADSVKGRFTISRDNAKNTVYLQMNSLKPEDTAVYYCAAERDDDWVNYWGQGTQVTVSS | low polyreactivity
16 | QVLLVVSGGGLVQAGGSLRLSCAASGFTFDTYAMGWNRQAPGKERELVAVITRGGSTNYADSVNGRFTISRDNAKNTVYLQMNSLKPEDTALYFCAAEHRNTYTFARDYYWGQGTQVTVSS | high polyreactivity
17 | QVQHVESGGGLLQAGGSLRLSCAASGFTFNANAMGWYRQAPGKERELVAVITRSGGRTYYADSVKGRFTISRDNAKNTVYLQMNSLKPEDTAVYYCNAKGWTRPPCYDYWGQGTQVTVSS | high polyreactivity
18 | QVQLVESGGGLVQARGSLRLSCAASGSIFGSYAMGWYRQAPGKDSELVADISCGGSTNYADSVKGRFTISRDNAKNTVYLQMNSLKPDDTAVYYCNADDPAGYLYLWGSWLESDYWGQGTQVTVSS | low polyreactivity
19 | QVQLVESGGGLVQAGGSLRLSCAASGSIFWVYAMGWYRQAPGKERELVAAISSSGGRTYYADSVKGRFTISRDNAKNTVYLQMNSVKPEVTAVYYCAARWKTGYNYWGQGTQVTVSS | high polyreactivity
20 | QVQLVESGGGLVQAGGSLRLRCAASGFTFRFYAMGWYRQAPGKERELVAAISSTGIRTYYADSVKGRFTISRDNAKNTVYLQMNSLKPEDTAFYYCAILHRDSILDYWGQGTQVTVAS | high polyreactivity
21 | QVQLVESGGGLVQAGGSLRLRCAASGSTFGRNTMGWYRQAPGKERELVAAISKSGGYTRYADSVKGRFTISRDNAKNTVYLQMNSLKPEDTAVYYCAARVYSLGYGGDYWGQGTQVTVSS | high polyreactivity
22 | QVQLVESVGGLVQAGGSLRLICAASGSTFPSYAMGWYRQAPGKEREVVAAINSGGGTNYADSVKGRFTISRDNAKYTVYLQMNSLKPEDTAVYYCAKSRYDYTKTEGGYWGQGTQVTVSS | low polyreactivity

Row | Sequence | polyreactivity (PSR sort gate)
23 | QVQLVESGGGLVQAGGSLRLSCAASGLNFYRYPMGWNRQAPGKERELVAAITRNGGSTYYADSVKGRFTISRDNANNTVYLQMNSLKPEDIAVYYCAADLYSAVYFSRWSDYWGQGTQVTVSS | high polyreactivity
24 | QVQLVESGGGLVQAGGSLRLSCAASGRILYGYTMGWYRQAPGKERELVAAISSNGDSTYYADSVKGRFTISRDNAKNTVYLQLNSLKPEDTAVYYCAAVSIGPGEYDYWGQGTQVTVSS | low polyreactivity
25 | QVQLVESGVGLVKAGGSLRLSCAASGSTFNGYGMGWYRQAPGKERELVAAMSWSGGSTYYADSVKGRFTISRDNAKNTGYLLMNSLKPEDTAVYYCAALTHYGGYGYTYDYWGQGTQVTVSS | low polyreactivity
26 | QVQLVESGGGLVQAGGSLRLSCAASGSIFDWYDMGWYRQAPRKEGELVAAISSGDSSYYADSVKGRFTISRDNAKNTVYFQIISLKPEDTAVYFCAAVTKLSGIRYNYWGQGTQLTVSS | low polyreactivity
27 | QVQRVESVGGLVQAGGSLRFSCAASGSTFTANAMGWYRQAPGKEREFVAAITQSGGDTYYADSVKGRFTISRDNAKNTVYLQMNSLKPEDSEVYYCAAESAYFVALTHFYTVEFYYWGQGTQGTVSS | low polyreactivity
28 | QVLLQEIGGGLVQAGGSLRLCCAASGYISGDQFMGWYRQAPGKEPECVAGIGNGTNSNYADSVKGRFTTSRDNAKNTVYLQMNILKPEDTAVYYCAADPSDGSTLAFWGQGTQVTVSS | high polyreactivity
29 | QVQLVESGGGLVQAGGSLRLSCAASGLIFESNAMGWYRQAPGKERELVAAITTNGGSTYYADSVKGRFTISRDNAKNTVYFQMNSLKPEVTAVYYCAALGLHQVIEYDYWGQGTQVTVSS | low polyreactivity
30 | QFQLVESGGGLVQAGGSLLLSCAASGSIFAPYDMGWYRQEPGKERELVAAISSSGGSTYYEDSVKGRFTISRDNSKNTVYLHMNSQKPEDTAVYYCDPEPYHGLYDYSGQGTQVTVSS | low polyreactivity
31 | QVQLVESGGCLVQAGGSLRLSCAASGFTFRYYAMGWYRQAPGKERELVASITGHGGSTYYADSVKGRFTISRDNAKNTVYLQMKSLKPEDTAVYYCNARVRGYYEYNYWGQGTQVTVST | high polyreactivity
32 | QVQLVESGGGLVQAGGSLRLSCAASGSIFGTYAMGWYRQAPGNERELVAAITGNGGRTYYADSVKGRFTISRDNAKNTVYLQMNSLKPEDTAVYYCAKATSRRGFYYWGQGTQVTVSS | high polyreactivity
33 | RFQLVESGGGLVQAGGSLRLSCAASGFTFRDYSMGGYRQAPGKERELVATISWGGASTSYADSVKGRFTISRDNAKNTVYLQMNSLKPEDTAVYYCNVRAQRRHGGYDHWGQGTLVTVSS | low polyreactivity
34 | QVQLVESGGGLVQAGGSLRLSCAASGSTYLYAIRWYRQAPGKERELVAAISWSGGSTYYADSVKGRFTISRDNAKNTVYLQMNSLKPEDTAVYYCNAYTYPFDWGQGTQVTVSS | high polyreactivity
35 | QVQLVESGGVLVQAGGSLRLSCAASGLIFKFYAMGWYRQAPGKERELVARISSSGGSTYYADSVKGRFTTSRDNAKNTVYLQMNSLKPEDTAVSYCAAGAYYVDRYARSSIFSYYYWGQATQVTVSS | high polyreactivity
36 | QVQLVESGGGLVQAGGSLRLSCAASGLIFRLYAMGWYRQAPGKERELVAAISVSGAITYYADSVKGRFTISRDNAKNTVYLLMNSLKPEDTAVYYCNAQAVFRRDGYVYWDVDYWGQGTQVTVSS | low polyreactivity
37 | QVQLVESGGGLVQAGGSLRLSCAASGITFYRNAMGWYRQAPGKEREFVAAITSSGGSTYYADSVKGRFTISRDNAKNTVYLQMNSLKPEDTAVYYCRPGRWRVSHKYDYWGQGTQVTVSS | high polyreactivity
38 | QVQLVESGGGLVQAGGSLRLSCAASGSTFPSNAMGWYRQAPGKERELVAAISSGGRTYYADSVKGRFTISRDNAKNTVYLQMKSLKPEDTAVYYCAADTDRRSPFDYWGQGTQVTVSS | high polyreactivity
39 | QVQLVESGVGLVQAGGSLRLSCAASGSIFYRNAMVWYRQAHGKERELVAAISGTGGSTYYADSLKGRFTISRDNAKNTVYLQMNSLKPEDTAVYYCASGVTYRHDYWGQGTQVTVSS | high polyreactivity
40 | QVQLVESGGGLVQAGGSLRLSCAASGSTLASYAMGWYRQAPGKERELVAAISLSGGSTYYADSVKGRFTISRDNAKNTVYLQMNSLKPEDTAVYYCAAETVRYEWGESPAALFDYWGQGTQVTVSS | low polyreactivity
41 | QVQLVESGGGLVQAGGSLRLSCAASGRIFLIYTMGWYRQAPGKERELVASITFRSGSTYYADSVKGRFTISRDNAKNTVYLQMNSLKPEDTAVYYCAADRGVLNQFDYWGQGTQVTVSS | low polyreactivity
42 | QVQHEESGGGLVQAGGSLRLSCAASGYTFSFYAMGWSRQAPGKERELVAAISSSDGTTYYADSVKGRFTISRDNAKNTVYLQMNSLKPQDTAVYYCNTRYVRQVVGTYTLKTRYYWGQGTQVTVSS | high polyreactivity
43 | QDQLVESGGGLVQAGGSLRLSCAASGSTFFRNAMGWYRQAPGKERELVASITSGGNTKYADSVKGRFTISCDNAKNTVYVQMNSLKPEDTAVYYCAAQFYHFARYSRLYNSWGQGTQVTVSS | low polyreactivity
